Reference: patent US6159731, “Daxx, a Fas-binding protein that activates JNK and apoptosis” (Massachusetts Institute of Technology, dated 2000)

B1: in vitro translated 35S-labeled full length murine Daxx (other)
chain: MATDDSIIVLDDDDEDEAAAQPGPSNLPPNPASTGPGPGLSQQATGLSEPRVDGGSSNSGSRKCYKLDNEKLFEEFLELCKTETSDHPEVVPFLHKLQQRAQSVFLASAEFCNILSRVLARSRKRPAKIYVYINELCTVLKAHSIKKKLNLAPAASTTSEASGPNPPTEPPSDLTNTENTASEASRTRGSRRQIQRLEQLLALYVAEIRRLQEKELDLSELDDPDSSYLQEARLKRKLIRLFGRLCELKDCSSLTGRVIEQRIPYRGTRYPEVNRRIERLINKPGLDTFPDYGDVLRAVEKAATRHSLGLPRQQLQLLAQDAFRDVGVRLQERRHLDLIYNFGCHLTDDYRPGVDPALSDPTLARRLRENRTLAMNRLDEVISKYAMMQDKTEEGERQKRRARLLGTAPQPSDPPQASSESGEGPSGMASQECPTTSKAETDDDDDDDDDDDEDNEESEEEEEEEEEEKEATEDEDEDLEQLQEDQGGDEEEEGGDNEGNESPTSPSDFFHRRNSEPAEGLRTPEGQQKRGLTETPASPPGASLDPPSTDAESSGEQLLEPLLGDESPVSQLAELEMEALPEERDISSPRKKSEDSLPTILENGAAVVTSTSVNGRVSSHTWRDASPPSKRFRKEKKQLGSGLLGNSYIKEPMAQQDSGQNTSVQPMPSPPLASVASVADSSTRVDSPSHELVTSSLCSPSPSLLLQTPQAQSLRQCIYKTSVATQCDPEEIIVLSDSD
modifications: 35S-labeled (in vitro translated)

Columns and labels:
[1] = molecular target: full length murine Fas expressed in cells (murine) (UniProt P25446)
[2] = molecular target: glutathione S-transferase (GST) (Schistosoma japonicum (Blood fluke), UniProt P08515 = GST); experiment: GST pull-down of in vitro translated 35S-Daxx
Description: In the two-hybrid system, the Daxx C-terminal region interacted strongly with Fas, confirming that Daxx is the functional homolog of clone A21 (FIG. 1B). We then tested the binding of full length murine Daxx protein in vitro and in mammalian cells. In vitro translated, ^35S-labeled Daxx bound to immobilized glutathione S-transferase (GST) fusion proteins of Fas death domain and TNFR1 intracellular tail but not to immobilized GST or GST-CD40 intracellular tail or GST-Fas lpr^cg death domain (FIG. 3A). Positions of MW standards (in kDa) are shown at left. Coomassie stained GST fusion proteins from the same gel were aligned to show protein levels. Daxx migrated with an apparent molecular weight of approximately 120 kDa on SDS-PAGE; this slower than expected migration may reflect the high content of acidic residues in Daxx. In the GST pull-down assay, ^35S-Daxx bound to GST-FasDD but only very weakly to GST-TNFR1. This discrepancy with the two-hybrid result (FIG. 1) may be due to the nonlinear readout of the two-hybrid system. Deletion of 162 amino acids from the C-terminus of Daxx abrogated binding to GST-FasDD while the C-terminal 112 amino acids (DaxxC) was sufficient to bind GST-FasDD (FIG. 3B), consistent with the two-hybrid results. Daxx(-162) was missing C-terminal 162 aa of Daxx; DaxxC corresponded to aa 628-739. […]

| Molecule | specific apoptosis of L929 cells stably overexpressing Daxx (L/Daxx) after Fas transfection [1] [fold] | binding result [2] |
| --- | --- | --- |
| HA-Daxx (hemagglutinin-tagged full length murine Daxx) | 3 | – |
| B1 | – | no binding |
